From paper PMC10635575

Legend:
[1] = target: CZA97.012 SOSIP.664 trimer (HIV-1, Clade C, clone CZA97.012 (97ZA.012)); assay: negative-stain electron microscopy; trimer purified by 2G12-, PGT145- or PGT151-affinity chromatography and then SEC, ~0.02 mg/mL, 2% uranyl formate, 2D class averages
[2] = target: CZA97.012 SOSIP.664 trimer (HIV-1, Clade C, clone CZA97.012 (97ZA.012)); assay: cryo-EM structure
[3] = N-glycosylation at N411
[4] = target: CZA97.012 SOSIP.664 trimer (HIV-1, Clade C, clone CZA97.012 (97ZA.012))
[5] = target: CZA97.012 SOSIP.664 trimer, His-tagged, 2G12-affinity- and then SEC-purified (HIV-1 (Clade C, clone CZA97.012)); assay: SPR
[6] = target: CZA97.012 SOSIP.664 trimer (HIV-1, Clade C, clone CZA97.012 (97ZA.012)); assay: SPR
[7] = target: CZA97.012 SOSIP.664 trimer (HIV-1, Clade C, clone CZA97.012 (97ZA.012)); remark: listed apart in the source

For CZA97.012 SOSIP.664 trimer (complex), the stoichiometry N [1] was 3 and the stoichiometry N [2] was 3.

For “CZA97.012 Env, D411N mutant: D411N (PNGS knock-in) vs parental; neutralization by autologous rabbit sera 2082 and 2084”, the other [3] was “decreases”.

For “CZA97.012 Env, D411N mutant: D411N (PNGS knock-in) vs parental; neutralization by autologous rabbit serum 2086”, the other [3] was “decreases”.

Work on 3BNC117 Fab yielded an IC50 of neutralization of CZA97.012 pseudovirus (Env on virions) by 3BNC117 IgG, TZM-bl assay [4] of 0.32 µg/mL, a Kd [5] of 15 nM and a koff [5] of 0.00014 s⁻¹. The kon [5] was 9700 M⁻¹ s⁻¹, the stoichiometry N [5] was 2.7 and the stoichiometry N [6] was 2.8.

With “CZA97.012 Env, D411N mutant: D411N (PNGS knock-in) vs parental; neutralization by bNAbs” the other [3] was “no change”.

B1: PGT145 (antibody, V domains shown)
VH: QVQLVQSGAEVKKPGSSVKVSCKASGNSFSNHDVHWVRQATGQGLEWMGWMSHEGDKTGLAQKFQGRVTITRDSGASTVYMELRGLTADDTAIYYCLTGSKHRLRDYFLYNEYGPNYEEWGDYLATLDVWGHGTAVTVSS
VL: EVVITQSPLFLPVTPGEAASLSCKCSHSLQHSTGANYLAWYLQRPGQTPRLLIHLATHRASGVPDRFSGSGSGTDFTLKISRVESDDVGTYYCMQGLHSPWTFGQGTKVEIK
B1 gave an IC50 of neutralization of CZA97.012 pseudovirus (Env on virions) by PGT145 IgG, TZM-bl assay [7] of 7.6 µg/mL.
